The values below come from US20090166224A1 (published 2009).

Common to all, as to test: human serum on Con A/WGA/Jacalin column, lectin-specific displacer fraction, LC-MS/MS; grade = SEQUEST rank group (+ = ranks 1-5, ++++ = 16-20)
The target in one experiment is T1, HEMOPEXIN (human, UniProt P02790 24-462).
T1 construct: from human serum
T1 sequence (looked up): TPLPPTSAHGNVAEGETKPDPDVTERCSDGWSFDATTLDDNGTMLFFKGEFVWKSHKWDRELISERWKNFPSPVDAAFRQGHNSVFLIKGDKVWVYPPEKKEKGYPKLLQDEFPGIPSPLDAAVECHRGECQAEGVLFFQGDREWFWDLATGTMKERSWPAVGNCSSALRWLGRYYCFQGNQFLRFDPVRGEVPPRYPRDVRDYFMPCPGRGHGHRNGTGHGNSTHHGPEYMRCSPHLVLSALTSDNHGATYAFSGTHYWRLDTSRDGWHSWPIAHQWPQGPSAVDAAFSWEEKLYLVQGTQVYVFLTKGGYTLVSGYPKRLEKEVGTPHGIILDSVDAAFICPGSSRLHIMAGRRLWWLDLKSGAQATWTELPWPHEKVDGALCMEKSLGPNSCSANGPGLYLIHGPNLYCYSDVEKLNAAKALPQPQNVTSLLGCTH

Experiment [1] concerns the target T2, IG ALPHA-1 CHAIN C REGION (human, UniProt P01876-1 1-353).
T2 construct: domain: C region; Polyclonal serum IgA, identified through its constant region; variable regions and light chains not defined; also called ALC1

The target in experiment [2] is T3, HAPTOGLOBIN-RELATED PROTEIN (human, UniProt P00739 1-348, limits assumed).
T3 construct: from human serum; also called HPTR
T3 sequence (looked up): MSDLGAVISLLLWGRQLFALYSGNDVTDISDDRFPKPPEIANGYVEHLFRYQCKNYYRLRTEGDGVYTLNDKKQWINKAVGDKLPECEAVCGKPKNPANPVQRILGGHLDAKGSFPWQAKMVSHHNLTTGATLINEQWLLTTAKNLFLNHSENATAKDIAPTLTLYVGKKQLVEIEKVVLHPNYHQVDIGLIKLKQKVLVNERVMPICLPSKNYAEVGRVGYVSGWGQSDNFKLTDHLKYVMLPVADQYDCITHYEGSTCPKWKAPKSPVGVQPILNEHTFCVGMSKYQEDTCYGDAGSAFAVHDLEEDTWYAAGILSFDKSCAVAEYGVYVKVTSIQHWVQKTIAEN

For experiment [3], the target named is T4, CARBOXYPEPTIDASE N 83 KDA CHAIN (human, UniProt P22792 22-545).
T4 construct: from human serum; also called CBP8
T4 sequence (looked up): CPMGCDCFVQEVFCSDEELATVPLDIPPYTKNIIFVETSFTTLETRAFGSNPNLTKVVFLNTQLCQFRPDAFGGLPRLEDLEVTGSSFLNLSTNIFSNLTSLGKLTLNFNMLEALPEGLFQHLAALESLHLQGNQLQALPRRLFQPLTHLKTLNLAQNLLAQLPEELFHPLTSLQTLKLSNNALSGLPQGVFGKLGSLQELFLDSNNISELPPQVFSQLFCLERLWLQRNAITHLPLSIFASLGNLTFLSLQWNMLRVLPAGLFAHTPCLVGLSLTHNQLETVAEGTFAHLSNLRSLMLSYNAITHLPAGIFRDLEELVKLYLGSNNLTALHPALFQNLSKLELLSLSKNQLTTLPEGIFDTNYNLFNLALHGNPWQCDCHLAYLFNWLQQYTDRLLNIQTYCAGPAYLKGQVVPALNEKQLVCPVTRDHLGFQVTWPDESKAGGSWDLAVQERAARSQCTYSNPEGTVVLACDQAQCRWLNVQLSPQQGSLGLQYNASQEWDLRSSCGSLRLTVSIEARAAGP

Experiment [4] concerns the target T5, PLASMA PROTEASE C1 INHIBITOR (human, UniProt P05155 23-500).
T5 construct: from human serum; also called IC1
T5 sequence (looked up): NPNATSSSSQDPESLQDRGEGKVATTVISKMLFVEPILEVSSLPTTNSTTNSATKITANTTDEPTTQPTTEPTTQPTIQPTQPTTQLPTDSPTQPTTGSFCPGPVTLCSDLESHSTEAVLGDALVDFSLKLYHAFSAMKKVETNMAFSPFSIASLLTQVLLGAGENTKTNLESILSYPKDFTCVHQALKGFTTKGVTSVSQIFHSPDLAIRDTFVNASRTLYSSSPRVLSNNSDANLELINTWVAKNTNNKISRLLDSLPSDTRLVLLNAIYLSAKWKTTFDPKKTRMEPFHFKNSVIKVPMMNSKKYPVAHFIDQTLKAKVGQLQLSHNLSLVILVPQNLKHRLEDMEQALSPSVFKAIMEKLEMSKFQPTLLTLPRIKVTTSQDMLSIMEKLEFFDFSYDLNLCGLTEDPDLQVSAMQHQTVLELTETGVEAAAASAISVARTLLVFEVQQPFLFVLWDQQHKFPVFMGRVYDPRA

T2 sequence (P01876 other isoform, or with tags, fused parts or gaps limits assumed): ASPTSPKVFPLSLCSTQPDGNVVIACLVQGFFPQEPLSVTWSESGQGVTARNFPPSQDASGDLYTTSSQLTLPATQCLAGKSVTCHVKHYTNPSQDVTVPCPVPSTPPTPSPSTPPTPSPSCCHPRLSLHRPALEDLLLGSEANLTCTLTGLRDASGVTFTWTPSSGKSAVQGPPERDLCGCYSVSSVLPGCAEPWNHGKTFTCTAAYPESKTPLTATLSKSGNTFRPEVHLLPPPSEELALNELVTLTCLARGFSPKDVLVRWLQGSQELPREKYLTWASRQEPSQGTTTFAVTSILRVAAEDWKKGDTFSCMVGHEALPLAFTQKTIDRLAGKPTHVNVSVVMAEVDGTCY

B1: wheat germ agglutinin (WGA), agarose-bound (other, UniProt P10968 27-197, looked up)
chain: QRCGEQGSNMECPNNLCCSQYGYCGMGGDYCGKGCQNGACWTSKRCGSQAGGATCTNNQCCSQYGYCGFGAEYCGAGCQGGPCRADIKCGSQAGGKLCPNNLCCSQWGFCGLGSEFCGGGCQSGACSTDKPCGKDAGGRVCTNNYCCSKWGSCGIGPGYCGAGCQSGGCDG
modifications: immobilized on agarose
notes: Lectin; released with N-acetyl-glucosamine; Coated on the plate in the lectin ELISA
With B1, the “SEQUEST ranking (relative abundance in the WGA displacement fraction)” value with HEMOPEXIN fell in the range of 1 to 5 rank; in experiment [1], 1 to 5 rank; in experiment [2], 1 to 5 rank; in experiment [3], 6 to 10 rank; in experiment [4], 16 to 20 rank.
